The supplement of paper PMC10598134
± gives the standard deviation.

Assay: collision cross section of modified peptide (TIMS, N2, iRT-aligned); higher = larger / more extended gas-phase ion
How it was run: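 Synthetic peptide pools (~100 fmol/µL in 2% acetonitrile/0.1% formic acid, iRT standard spiked 1:40) were separated on a 120-min nanoflow C18 gradient at 60 °C. They were analysed on a timsTOF Pro/HT (dda-PASEF, nitrogen, ~2.4 mbar) and identified with MaxQuant. 1/K0 was calibrated with three reference ions and aligned run-wise to the median iRT peptide deviation. Collision cross section came from the Mason-Schamp equation, averaging 1–3 technical replicates of the most abundant feature per charge state.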

[1] = charge state: 2, modification: Methyl (K)
[2] = charge state: 3, modification: Methyl (K)
[3] = charge state: 3, modification: Dimethyl (K)
[4] = charge state: 2, modification: Glutarylation
[5] = charge state: 3, modification: Glutarylation
[6] = charge state: 2, modification: Crotonyl
[7] = charge state: 3, modification: Citrullination (R)
[8] = charge state: 2, modification: Biotin
[9] = charge state: 2, modification: Propionyl
[10] = charge state: 2, modification: Trimethyl (K)
[11] = charge state: 3, modification: Trimethyl (K)
[12] = charge state: 2, modification: HexNAc (ST)
[13] = charge state: 2, modification: Citrullination (R)
[14] = charge state: 2, modification: Phospho (Y)
[15] = charge state: 2, modification: Butyryl
[16] = charge state: 3, modification: GlyGly (K)
[17] = charge state: 3, modification: Malonyl
[18] = charge state: 2, modification: GlyGly (K)
[19] = charge state: 2, modification: Dimethyl (K)
[20] = charge state: 2, modification: Malonyl

## GADFLVTEVENGGSLGSKK [_GADFLVTEVENGGSLGSK(Methyl (K))K_]
[1]
  collision cross section: 494.56 Å²
[2]
  collision cross section: 538.26 Å²

## AGQKLIDVNHYAK [_AGQK(Dimethyl (K))LIDVNHYAK_]
[3]
  collision cross section: 472.93 ± 1.2 Å²

## VTLEVGKVIQQGR [_VTLEVGK(Gluratylation)VIQQGR_]
[4]
  collision cross section: 418.56 ± 0.59 Å²
[5]
  collision cross section: 485.84 ± 1 Å²

## VPTTEKPTVTVNFR [_VPTTEK(Crotonyl)PTVTVNFR_]
[6]
  collision cross section: 427.61 ± 0.55 Å²
Charge state: 3, modification: Crotonyl
  collision cross section: 510.39 Å²

## SRGGGGNFGPGPGSNFR [_SR(Citrullination (R))GGGGNFGPGPGSNFR_]
[7]
  collision cross section: 461.31 ± 6.4 Å²

## SLFFGGKGAPLQR [_SLFFGGK(hydroxyisobutyryl)GAPLQR_]
Charge state: 2, modification: hydroxyisobutyryl
  collision cross section: 408.12 ± 0.55 Å²
Charge state: 3, modification: hydroxyisobutyryl
  collision cross section: 482.11 Å²

## ITGKNQVTATK [_ITGK(Gluratylation)NQVTATK_]
[4]
  collision cross section: 369.78 ± 0.66 Å²

## TPNLYIYSKK [_TPNLYIYSK(Biotin)K_]
[8]
  collision cross section: 409.6 Å²

## ASNAAVKLAESK [_ASNAAVK(Crotonyl)LAESK_]
[6]
  collision cross section: 375.99 ± 0.26 Å²

## IVSGKDYNVTANSK [_IVSGK(Crotonyl)DYNVTANSK_]
[6]
  collision cross section: 415.26 ± 1.1 Å²

## FSAYIKNSNPALNDNLEK [_FSAYIK(Gluratylation)NSNPALNDNLEK_]
[4]
  collision cross section: 487.96 ± 2 Å²
[5]
  collision cross section: 547.09 ± 1.3 Å²

## AGQKLIDVNHYAK [_AGQK(Propionyl)LIDVNHYAK_]
[9]
  collision cross section: 432.1 ± 1.1 Å²
Charge state: 3, modification: Propionyl
  collision cross section: 484.45 Å²

## YIEIYVQKVNPSR [_YIEIYVQK(Trimethyl (K))VNPSR_]
[10]
  collision cross section: 446.57 Å²
[11]
  collision cross section: 499.16 ± 1.6 Å²

## YIEIYVQKVNPSR [_YIEIYVQK(Methyl (K))VNPSR_]
[1]
  collision cross section: 439.54 ± 1.7 Å²
[2]
  collision cross section: 505.56 ± 3.7 Å²

## TSAVSSQANSQPPVQVSVK [_TSAVSSQANSQPPVQVS(HexNAc (ST))VK_]
[12]
  collision cross section: 471.02 Å²

## GAEKTEVAEPR [_GAEK(Biotin)TEVAEPR_]
[8]
  collision cross section: 393.63 Å²

## GRGGAESHTFK [_GR(Citrullination (R))GGAESHTFK_]
[13]
  collision cross section: 374.44 ± 0.39 Å²
[7]
  collision cross section: 436.66 ± 2.2 Å²

## SGKFTQQDIDEAK [_SGK(Crotonyl)FTQQDIDEAK_]
[6]
  collision cross section: 419.28 ± 0.55 Å²

## IVSGKDYNVTANSK [_IVSGK(Trimethyl (K))DYNVTANSK_]
[10]
  collision cross section: 419.62 ± 1.6 Å²
[11]
  collision cross section: 475.29 ± 2.4 Å²

## GERGFPGYPGPK [_GERGFP(Hydroxyproline)GYPGPK_]
Charge state: 2, modification: Hydroxyproline
  collision cross section: 370.65 ± 1.8 Å²

## CSVLAAANPVYGR [_CSVLAAANPVY(Phospho (Y))GR_]
[14]
  collision cross section: 407.91 ± 1.2 Å²

## LQLEIDQKK [_LQLEIDQK(Formyl)K_]
Charge state: 2, modification: Formyl
  collision cross section: 362.42 ± 1 Å²

## LQLEIDQKK [_LQLEIDQK(Butyryl)K_]
[15]
  collision cross section: 370.32 ± 1.2 Å²

## LEKTIDDLEEK [_LEK(Gluratylation)TIDDLEEK_]
[4]
  collision cross section: 410.17 ± 1.1 Å²

## RFGGPVHHQAQR [_R(Citrullination (R))FGGPVHHQAQR_]
[13]
  collision cross section: 387.08 ± 0.89 Å²
[7]
  collision cross section: 477.19 ± 0.94 Å²

## IVEKYGYTHLSAGELLR [_IVEK(GlyGly (K))YGYTHLSAGELLR_]
[16]
  collision cross section: 548.84 ± 0.37 Å²

## DASTLQSQKAEGTGDAK [_DASTLQSQK(Methyl (K))AEGTGDAK_]
[1]
  collision cross section: 440.39 ± 1.8 Å²
[2]
  collision cross section: 487.49 ± 2.4 Å²

## DASTLQSQKAEGTGDAK [_DASTLQSQK(Trimethyl (K))AEGTGDAK_]
[10]
  collision cross section: 445.31 ± 1 Å²
[11]
  collision cross section: 482.47 ± 1.6 Å²

## AQVLAGGRGK [_AQVLAGGR(Methyl (R))GK_]
Charge state: 2, modification: Methyl (R)
  collision cross section: 352.61 ± 7.6 Å²

## YEQEHAAIQDKLFQVAK [_YEQEHAAIQDK(Malonyl)LFQVAK_]
[17]
  collision cross section: 515.74 ± 1.8 Å²

## VLDSGAPIKIPVGPETLGR [_VLDSGAPIK(GlyGly (K))IPVGPETLGR_]
[18]
  collision cross section: 467.11 ± 1.6 Å²
[16]
  collision cross section: 510.19 ± 1.1 Å²

## DSINFLDHINGKK [_DSINFLDHINGK(Formyl)K_]
Charge state: 3, modification: Formyl
  collision cross section: 468.04 Å²

## SVGGSGGGSFGDNLVTR [_SVGGSGGGSFGDNLVT(HexNAc (ST))R_]
[12]
  collision cross section: 423.68 ± 0.13 Å²

## HELQANCYEEVKDR [_HELQANCYEEVK(Gluratylation)DR_]
[5]
  collision cross section: 487.76 ± 1.7 Å²

## KYEEIDNAPEER [_K(Biotin)YEEIDNAPEER_]
[8]
  collision cross section: 430.04 ± 3.1 Å²
Charge state: 3, modification: Biotin
  collision cross section: 521.46 ± 0.34 Å²

## SDDESSQKDIK [_SDDESSQK(GlyGly (K))DIK_]
[18]
  collision cross section: 380.21 ± 0.89 Å²
[16]
  collision cross section: 442.7 ± 0.74 Å²

## VFIGNLNTLVVKK [_VFIGNLNTLVVK(GlyGly (K))K_]
[18]
  collision cross section: 445.95 ± 1.4 Å²
[16]
  collision cross section: 487.11 ± 2 Å²

## TTSYPTPRPYPKPAPSSGK [_TTSYPTPRPYPKPAPS(HexNAc (ST))SGK_]
Charge state: 3, modification: HexNAc (ST)
  collision cross section: 526.67 Å²

## DSSPTTNSKLSALQR [_DSSPTTNSK(Methyl (K))LSALQR_]
[1]
  collision cross section: 419.3 Å²
[2]
  collision cross section: 475.79 ± 3.5 Å²

## PANEKATDDYHYEK [_PANEK(Gluratylation)ATDDYHYEK_]
[4]
  collision cross section: 448.09 ± 1.5 Å²
[5]
  collision cross section: 511.51 ± 1 Å²

## TTGFYSGFSEVAEKR [_TTGFYSGFSEVAEK(Gluratylation)R_]
[4]
  collision cross section: 443.45 ± 0.95 Å²
[5]
  collision cross section: 517.64 Å²

## ASAISIKLGSSK [_ASAISIK(Butyryl)LGSSK_]
[15]
  collision cross section: 375.24 ± 1.9 Å²

## VETTVTSLKTK [_VETTVTSLK(GlyGly (K))TK_]
[18]
  collision cross section: 391.21 ± 2 Å²
[16]
  collision cross section: 459.77 ± 2 Å²

## ITLSKHQNVQLPR [_ITLSK(Acetyl (K))HQNVQLPR_]
Charge state: 2, modification: Acetyl (K)
  collision cross section: 436.23 ± 3.2 Å²
Charge state: 3, modification: Acetyl (K)
  collision cross section: 526.67 ± 2.1 Å²

## LLEEEDSKLK [_LLEEEDSK(Gluratylation)LK_]
[4]
  collision cross section: 387.79 ± 0.61 Å²

## LGVATVAKGVCGACK [_LGVATVAK(Gluratylation)GVCGACK_]
[4]
  collision cross section: 422.53 Å²
[5]
  collision cross section: 500.02 Å²

## DTPTSAGPNSFNKGK [_DTPTSAGPNSFNK(Dimethyl (K))GK_]
[19]
  collision cross section: 406.79 ± 1.1 Å²
[3]
  collision cross section: 455.12 ± 1.6 Å²

## DKALPLEAEVAPVK [_DK(Methyl (K))ALPLEAEVAPVK_]
[1]
  collision cross section: 408.8 ± 1.9 Å²
[2]
  collision cross section: 507.57 ± 2 Å²

## GSAPPGPVPEGSIR [_GS(HexNAc (ST))APPGPVPEGSIR_]
[12]
  collision cross section: 399.5 ± 0.63 Å²

## FGRGTGLTQPSQR [_FGR(Citrullination (R))GTGLTQPSQR_]
[13]
  collision cross section: 390.81 ± 0.16 Å²

## LEQVEKELLR [_LEQVEK(Propionyl)ELLR_]
[9]
  collision cross section: 387.92 ± 0.44 Å²

## HLRGHGPQPPLR [_HLR(Citrullination (R))GHGPQPPLR_]
[13]
  collision cross section: 393.67 ± 4.3 Å²
[7]
  collision cross section: 482.78 ± 1.8 Å²

## SDDESSQKDIK [_SDDESSQK(Gluratylation)DIK_]
[4]
  collision cross section: 382.21 ± 1.1 Å²

## DYSSGFGGKYGVQADR [_DYSSGFGGK(Dimethyl (K))YGVQADR_]
[19]
  collision cross section: 435.9 ± 1.8 Å²
[3]
  collision cross section: 488.23 ± 0.74 Å²

## SYSVGASGSSSR [_SY(Phospho (Y))SVGASGSSSR_]
[14]
  collision cross section: 356.68 ± 0.65 Å²

## ALASIDSKLNQAK [_ALASIDSK(Succinyl)LNQAK_]
Charge state: 2, modification: Succinyl
  collision cross section: 408.18 ± 0.54 Å²
Charge state: 3, modification: Succinyl
  collision cross section: 477.06 Å²

## PGGEGPQCEKTTDVK [_PGGEGPQCEK(Butyryl)TTDVK_]
[15]
  collision cross section: 421.37 ± 0.77 Å²

## DYSVTANSK [_DY(Phospho (Y))SVTANSK_]
[14]
  collision cross section: 332.04 ± 0.69 Å²

## IHNAENIQPGEQKYEYK [_IHNAENIQPGEQK(GlyGly (K))YEYK_]
[16]
  collision cross section: 529.6 ± 1.2 Å²

## GPQNATDSYVHK [_GPQNATDSY(Nitro (Y))VHK_]
Charge state: 2, modification: Nitro (Y)
  collision cross section: 386.3 ± 0.94 Å²
Charge state: 3, modification: Nitro (Y)
  collision cross section: 449.51 ± 0.23 Å²

## GTVPDDAVEALADSLGKK [_GTVPDDAVEALADSLGK(Malonyl)K_]
[20]
  collision cross section: 454.67 ± 1.4 Å²

## ANLEKAQAELVGTADEATR [_ANLEK(Malonyl)AQAELVGTADEATR_]
[20]
  collision cross section: 476.69 ± 0.96 Å²
[17]
  collision cross section: 576.12 ± 0.95 Å²

## ITASLCDLKSR [_ITASLCDLK(Gluratylation)SR_]
[4]
  collision cross section: 391.61 ± 1.4 Å²

## LFVGGIKEDTEEHHLR [_LFVGGIK(GlyGly (K))EDTEEHHLR_]
[18]
  collision cross section: 499.18 Å²
[16]
  collision cross section: 544.61 ± 1.1 Å²

## GGSAGGRGFFR [_GGSAGGR(Citrullination (R))GFFR_]
[13]
  collision cross section: 340.82 ± 0.52 Å²

## VHATSTYR [_VHATSTY(Phospho (Y))R_]
[14]
  collision cross section: 330.17 ± 0.75 Å²
Charge state: 3, modification: Phospho (Y)
  collision cross section: 411.28 Å²
